Measured values: US20190298830A1 (SUZHOU GALAXY BIOPHARMA, published 2019)

Tests used:
Test in all cases: cell-based or functional assay
[1] = target: T1, E2 envelope protein on HCV euvirus (HCVcc) particles, strain PR79 (1b) (Hepatitis C virus strain PR79 (1b))
[2] = target: T2, E2 envelope protein on HCV euvirus (HCVcc) particles, strain JFH1 (2a) (Hepatitis C virus strain JFH1 (2a))
[3] = target: T3, E2 envelope protein on HCV euvirus (HCVcc) particles, strain D183 (2a) (Hepatitis C virus strain D183 (2a))
[4] = target: E2 envelope protein on HCV euvirus particles, strain PR52B6M (1b) (Hepatitis C virus strain PR52B6M (1b))
[5] = target: E2 envelope protein on HCV euvirus (HCVcc) particles, strain PR52 (1b) (Hepatitis C virus strain PR52 (1b))
[6] = target: E2 envelope protein on HCV euvirus (HCVcc) particles, strain PR26 (1b) (Hepatitis C virus strain PR26 (1b))
[7] = target: E2 envelope protein on HCV euvirus (HCVcc) particles, strain Con1 (1b) (Hepatitis C virus strain Con1 (1b))
[8] = target: T1, E2 envelope protein on HCV euvirus …; remark: listed apart in the source
[9] = target: T2, E2 envelope protein on HCV euvirus …; remark: listed apart in the source
[10] = target: E2 envelope protein on HCV euvirus (HCVcc) particles, strain PR63 (2a) (Hepatitis C virus strain PR63 (2a))
[11] = target: T3, E2 envelope protein on HCV euvirus …; remark: listed apart in the source
[12] = target: E2 envelope protein on HCV euvirus (HCVcc) particles, strain J8 (2b) (Hepatitis C virus strain J8 (2b))
[13] = target: E2 envelope protein on HCV euvirus (HCVcc) particles, strain S52 (3a) (Hepatitis C virus strain S52 (3a))
[14] = target: E2 envelope protein on HCV euvirus (HCVcc) particles, strain SA13 (5a) (Hepatitis C virus strain SA13 (5a))
[15] = target: E2 envelope protein on HCV euvirus (HCVcc) particles, strain HK6a (6a) (Hepatitis C virus strain HK6a (6a))

B1: human monoclonal antibody 8D6 (antibody, V domains shown)
VH: EVQLVQSGSELKKPGASLKLSCKASGYTYITPAMNWVRQAPGHGLEWMGGINTNTGNPTYAQGFAGRFVFSWDTSVSTAYLHISSLKTEDTAVYYCADTRIFSCRRGTCYGGFDVWGQGTMVTVSS
VL: DIQMTQSPSSLSASVGDRITITCRASQSISNFLNWFQHRPGKAPKLLIYGATILQSGVPSRFSGSGSGTDFTLTISSLQPEDFATYYCQQSDSSTYIFGQGTKVEIK
For B1, the “inhibition rate of HCV euvirus, at antibody concentration higher than 0.4 µg/ml” value (“inhibition rate of HCV euvirus” for short) [1] was > 90%, the “inhibition rate of HCV euvirus” value [2] was > 90% and the “inhibition rate of HCV euvirus” value [3] was > 90%. The “inhibition rate of HCV euvirus” value [4] was > 90%, the “IC50 (µg/ml), micro neutralization of HCV euvirus (NS5A-positive foci in Huh-7.5 cells)” value (shortened to “IC50 (µg/ml), micro neutralization”) [5] was < 0.08 µg/mL and the “IC50 (µg/ml), micro neutralization” value [6] was 0.412 µg/mL. The “IC50 (µg/ml), micro neutralization” value [7] was 2.43 µg/mL, the “IC50 (µg/ml), micro neutralization” value [8] was < 0.08 µg/mL and the “IC50 (µg/ml), micro neutralization” value [9] was 0.003 µg/mL. The “IC50 (µg/ml), micro neutralization” value [10] was < 0.016 µg/mL, the “IC50 (µg/ml), micro neutralization” value [11] was < 0.08 µg/mL and the “IC50 (µg/ml), micro neutralization” value [12] was 10 µg/mL. The “IC50 (µg/ml), micro neutralization” value [13] was 0.01 µg/mL, the “IC50 (µg/ml), micro neutralization” value [14] was 0.087 µg/mL and the “IC50 (µg/ml), micro neutralization” value [15] was 0.0015 µg/mL.
